The record followed here is the RNAGym collection of RNA variant scans (doi:10.1101/gr.219683.116).

B1: mRNA-splicing (parent)
chain: AGUUGCUGCUGGGAGCUCCAGCACAGUGAAAUGGACAGAAGGGCAGAGCAA

In the series the parent is B1. In words: exon inclusion enrichment index; higher = more inclusion; WT1 exon 5 minigene, HEK293.
As to AGUUACCACCGGGAGCACCAGCACAGUGAAAUGGACAGAAGGGCAGAGCAA [G5A U7C G8A U10C U17A], the “exon inclusion enrichment index” value stood at 1.89.
In the case of AGUUACCACCGGGAGCGCCAGCACAGUGAAAUGGACAGAAGGGCAGAGCAA [G5A U7C G8A U10C U17G], the “exon inclusion enrichment index” value turned out to be 1.81.
Then AGUUACCACCGGGAGCCCCAGCACAGUGAAAUGGACAGAAGGGCAGAGCAA [G5A U7C G8A U10C U17C], with 1.62.
Regarding AGUUACCACCGGGAGCUCCAGCACAGUGAAAUGGACAGAAGUACAGAGCAA [G5A U7C G8A U10C G42U G43A], the “exon inclusion enrichment index” value came to 3.16.
AGUUACCACCGGGAGCUCCAGCACAGUGAAAUGGACAGAAGUCCAGAGCAA [G5A U7C G8A U10C G42U G43C]: the “exon inclusion enrichment index” value was 1.5.
The figure for AGUUACCACCGGGAGCUCCAGCACAGUGAAAUGGACAGAAGUUCAGAGCAA [G5A U7C G8A U10C G42U G43U] is 3.03; for AGUUACCACGGGGAGCUCCAGCACAGUGAAAUGGACAGAAGGGCAGAGCAA [G5A U7C G8A U10G] it is 1.28.
With AGUUACCACCGGGAGCUCCAGCACAGUGAAAUGGACAGAAGGAAAGAGCAA [G5A U7C G8A U10C G43A C44A], the “exon inclusion enrichment index” value is 3.99.
Then AGUUACCACCGGGAGCUCCAGCACAGUGAAAUGGACAGAAGGAUAGAGCAA [G5A U7C G8A U10C G43A C44U], with 2.57; and AGUUACCACCGGGAGCUCCAGCACAGUGAAAUGGACAGAAGGAGAGAGCAA [G5A U7C G8A U10C G43A C44G], with 4.11; and AGUUACCACCGGGAGCCGCAGCACAGUGAAAUGGACAGAAGGGCAGAGCAA [G5A U7C G8A U10C U17C C18G], with 2.38.
With AGUUACCACCGGGAGCCUCAGCACAGUGAAAUGGACAGAAGGGCAGAGCAA [G5A U7C G8A U10C U17C C18U], the “exon inclusion enrichment index” value amounted to 1.85.
In the case of AGUUACCACCGGGAGCCACAGCACAGUGAAAUGGACAGAAGGGCAGAGCAA [G5A U7C G8A U10C U17C C18A], the “exon inclusion enrichment index” value stood at 1.54.
As to AGUUACCACCGGGAGCGACAGCACAGUGAAAUGGACAGAAGGGCAGAGCAA [G5A U7C G8A U10C U17G C18A], the “exon inclusion enrichment index” value was 2.15.
With AGUUACCACCGGGAGCGGCAGCACAGUGAAAUGGACAGAAGGGCAGAGCAA [G5A U7C G8A U10C U17G C18G], the “exon inclusion enrichment index” value is 1.96.
AGUUACCACCGGGAGCGUCAGCACAGUGAAAUGGACAGAAGGGCAGAGCAA [G5A U7C G8A U10C U17G C18U]: the “exon inclusion enrichment index” value came to 1.66.
Then AGUUACCACCGGGAGCUCCAGCACAGUGAAAUGGACACGAGGGCAGAGCAA [G5A U7C G8A U10C G38C A39G], with 2.15.
Then AGUUACCACCGGGAGCUCCAGCACAGUGAAAUGGACACCAGGGCAGAGCAA [G5A U7C G8A U10C G38C A39C], with 2.25.
AGUUACCACCGGGAGCUCCAGCACAGUGAAAUGGACACUAGGGCAGAGCAA [G5A U7C G8A U10C G38C A39U]: the “exon inclusion enrichment index” value was found to be 0.229.
The figure for AGUUACCACCGGGAGCUCCAGCACAGUGAAAUGGACAGAAUCGCAGAGCAA [G5A U7C G8A U10C G41U G42C] is 2.97; for AGUUACCACCGGGAGCUCCAGCACAGUGAAAUGGACAGAAUAGCAGAGCAA [G5A U7C G8A U10C G41U G42A] it is 0.909.
On to AGUUACCACCGGGAGCUCCAGCACAGUGAAAUGGACAGAAUUGCAGAGCAA [G5A U7C G8A U10C G41U G42U], for which the “exon inclusion enrichment index” value was determined as 1.9.
Take AGUUACCACCGGGAGCUCCAGCACAGAGAAAUGGACAGAAGGGCAGAGCAA [G5A U7C G8A U10C U27A]: the “exon inclusion enrichment index” value amounted to 2.49.
Then AGUUACCACCGGGAGCUCCAGCACAGCGAAAUGGACAGAAGGGCAGAGCAA [G5A U7C G8A U10C U27C], with 4.31; and AGUUACCACCGGGAGCUCCAGCACAGGGAAAUGGACAGAAGGGCAGAGCAA [G5A U7C G8A U10C U27G], with 1.05; and AGUUACCACCGGGAGCUCCAGCACAGUGAAAUGGACAGAAGAGCAGAGCAA [G5A U7C G8A U10C G42A], with 3.71.
Then AGUUACCACCGGGAGCUCCAGCACAGUGAAAUGGACAGAAGCGCAGAGCAA [G5A U7C G8A U10C G42C], with 3.71.
Then AGUUACCACCGGGAGCUCCAGCACAGUGAAAUGGACAGAAGUGCAGAGCAA [G5A U7C G8A U10C G42U], with 2.55; and AGUUACCACCGGGAGCUCCAGCACAGGUAAAUGGACAGAAGGGCAGAGCAA [G5A U7C G8A U10C U27G G28U], with 0.0167.
Consider AGUUACCACCGGGAGCUCCAGCACAGGAAAAUGGACAGAAGGGCAGAGCAA [G5A U7C G8A U10C U27G G28A], for which the “exon inclusion enrichment index” value is 2.37.
Turning to AGUUACCACCGGGAGCUCCAGCACAGGCAAAUGGACAGAAGGGCAGAGCAA [G5A U7C G8A U10C U27G G28C], the “exon inclusion enrichment index” value was 1.17.
As to AGUUACCACCGGGAGCUCCAGCACAGUGAAAUGGACAGAAAUGCAGAGCAA [G5A U7C G8A U10C G41A G42U], the “exon inclusion enrichment index” value is 1.8.
On to AGUUACCACCGGGAGCUCCAGCACAGUGAAAUGGACAGAAACGCAGAGCAA [G5A U7C G8A U10C G41A G42C], for which the “exon inclusion enrichment index” value amounted to 2.53.
Consider AGUUACCACCGGGAGCUCCAGCACAGUGAAAUGGACAGAAAAGCAGAGCAA [G5A U7C G8A U10C G41A G42A], for which the “exon inclusion enrichment index” value came out at 1.99.
In the case of AGUUACCACCGGGAGCUCCAGCACAGUGAAAUGGACAGAAGGGCACCGCAA [G5A U7C G8A U10C G46C A47C], the “exon inclusion enrichment index” value worked out at 1.81.
Take AGUUACCACCGGGAGCUCCAGCACAGUGAAAUGGACAGAAGGGCACGGCAA [G5A U7C G8A U10C G46C A47G]: the “exon inclusion enrichment index” value was 2.57.
For the variant AGUUACCACCGGGAGCUCCAGCACAGUGAAAUGGACAGAAGGGCACUGCAA [G5A U7C G8A U10C G46C A47U], the “exon inclusion enrichment index” value was 2.03.
Then AGUUACCACCGGGAGCUCCAGCACAGUGAAAUGGACAGAAGGGCAAGGCAA [G5A U7C G8A U10C G46A A47G], with 0.953.
As for AGUUACCACCGGGAGCUCCAGCACAGUGAAAUGGACAGAAGGGCAAUGCAA [G5A U7C G8A U10C G46A A47U], the “exon inclusion enrichment index” value came to 2.29.
Consider AGUUACCACCGGGAGCUCCAGCACAGUGAAAUGGACAGAAGGGCAACGCAA [G5A U7C G8A U10C G46A A47C], for which the “exon inclusion enrichment index” value turned out to be 3.08.
As for AGUUACCACCGGGAGCUCCAGCACAGAUAAAUGGACAGAAGGGCAGAGCAA [G5A U7C G8A U10C U27A G28U], the “exon inclusion enrichment index” value worked out at 0.834.
Then AGUUACCACCGGGAGCUCCAGCACAGAAAAAUGGACAGAAGGGCAGAGCAA [G5A U7C G8A U10C U27A G28A], with 2.27.
Consider AGUUACCACCGGGAGCUCCAGCACAGACAAAUGGACAGAAGGGCAGAGCAA [G5A U7C G8A U10C U27A G28C], for which the “exon inclusion enrichment index” value was 2.42.
The figure for AGUUACCACCGGGAGCUCCAGCACAGUGAAAGUGACAGAAGGGCAGAGCAA [G5A U7C G8A U10C U32G G33U] is 0.923; for AGUUACCACCGGGAGCUCCAGCACAGUGAAAGAGACAGAAGGGCAGAGCAA [G5A U7C G8A U10C U32G G33A] it is 0.707; for AGUUACCACCGGGAGCUCCAGCACAGUGAAAGCGACAGAAGGGCAGAGCAA [G5A U7C G8A U10C U32G G33C] it is 2.16.
Regarding AGUUACCACCGGGAGCUCCAGCACAGUGAAAUGGACAGAACUGCAGAGCAA [G5A U7C G8A U10C G41C G42U], the “exon inclusion enrichment index” value came out at 3.05.
Take AGUUACCACCGGGAGCUCCAGCACAGUGAAAUGGACAGAACAGCAGAGCAA [G5A U7C G8A U10C G41C G42A]: the “exon inclusion enrichment index” value is 2.13.
The figure for AGUUACCACCGGGAGCUCCAGCACAGUGAAAUGGACAGAACCGCAGAGCAA [G5A U7C G8A U10C G41C G42C] is 3.27; for AGUUACCACCGGGAGCUCCAGCACAGUGAAAUGGACAGAAGGUAAGAGCAA [G5A U7C G8A U10C G43U C44A] it is 0.058; for AGUUACCACCGGGAGCUCCAGCACAGUGAAAUGGACAGAAGGUUAGAGCAA [G5A U7C G8A U10C G43U C44U] it is 0.735.
